{"source": "patent US20250382355A1", "about": "(Merck Sharp & Dohme, published 2025)", "binders": {"B1": {"name": "15H1 VHH-Fc (Fc fusion)", "chain": "QVQLVESGGGLAQAGGSLRLSCASSGLIFSGSAMGWFRQAPGKEREFVGVISWNGRTTYADSVKGRFTISRDDAVNMVWLQMNNLKPEDTAVYYCAADHLNYGSGDVNPRTYDYWGQGTQVTVSS"}, "B2": {"name": "11F8 VHH-Fc (Fc fusion)", "chain": "QVQLVESGGGLVQAGGSLRLSCAASGRTVGYYAVGWFRQAPGKERDFVAAISWSGRNTNYADSVTGRFTIFRDNAKNTVDLQMNSLKPEDTAVYYCAADYWNYGSGSEVPNNYDTWGQGTQVTVSS"}, "B3": {"name": "13C8 VHH-Fc (Fc fusion)", "chain": "QVQLVESGGGLVQAGGSLRLSCAASGRTVNKYMTGWFRQTPGKEREFVASIDWSSTTTHYANSVKGRFTISRDKVKNTVYLQMNGLKPEDTAVYYCAAHQDSSYGYTILPIDYDSWGQGTQVTVSS"}, "B4": {"name": "1A11 VHH (VHH)", "VHH": "QVQLVESGGGLVQAGGSLRLSCEVSGSIYSINSMGWYRQAPGKQRELVAGIVSDGRINYADSVKGRFTISRAKNTVYLQMNSLKPEDTAVYYCAADRAFVYAGDYDYLGQGTQVTVSS"}, "B5": {"name": "16H7 VHH (VHH)", "VHH": "QVQLVESGGGLVQAGGSLRLSCAASGRAFSKDTMGWFRQAPGKEREFVAVISASGDSTYYADFVKGRFTISRDNAKNTEYLQMNSLKPEDTAVYHCAADGARAYYSINAHRYSWAYNYWGQGTQVTVSS"}, "B6": {"name": "19E10 VHH (VHH)", "VHH": "QVQLVESGGGLVQPGGSLRLSCVASGSTISINSMGWYRQAPGKAREMVATITNDGPIKYADPVKGRFTISRDNPKNTVYLQMNSLKPEDTAVYYCVADRAYWLAGEWEYWGQGTQVTVSS"}, "B7": {"name": "5D7 VHH (VHH)", "VHH": "QVQLVESGGGLVQAGGSLRLSCAASGRTGSRYIMGWFRQAPGKEREFVAAINWRGDSTYYADSVKGRFTIARDNAKNTAYLQMNSLKPEDTAVYYCVADRGESYYYTRSTEYTYWGQGTQVTVSS"}, "B8": {"name": "6A1 VHH (VHH)", "VHH": "QVQLVESGGGLVQAGGSLRLSCTASGNIFSVNVMGWHRQAPGKRRELVAALTNDGRRNYADSVKGRFTISRDNAKNTIYLEMNSLKPEDTAVYYCGTGTLESGFNSWGQGLQVTVSS"}, "B9": {"name": "7A9 VHH (VHH)", "VHH": "QVQLVESGGGLVQAGGSLRLSCSASGGTASRSAMGWFRQAPGKEREFVAGISRRNSGSTYVADSYEDSVKGRFTISRDNAKNTIYLQMNSLKPEDTAVYYCAAEPTLGWYVPRRSVEYEYWGQGTQVTVSS"}, "B10": {"name": "15H1 VHH (VHH)", "VHH": "B1 chain"}, "B11": {"name": "3D4 VHH (VHH)", "VHH": "QVQLVESGGGLVQPGGSLRLSCAASGFTLDLNSIGWFRQAPGKEREGVSCISPSGSRMHYADSVKGRFTISRDNAKNTVYLQMNSLKPEDTAVYYCATGSPSYHYCSMYGLEYDSWGQGTQVTVPS"}, "B12": {"name": "19C10 VHH (VHH)", "VHH": "B11 VHH with G55A, R57S, M58T, S100T, S115D, P125S"}, "B13": {"name": "9B2 VHH (VHH)", "VHH": "QVQLVESGGGLVQPGGSLRLSCAASGFTLDNYAIGWFRQAPGKEREGVSCISSSDGDTQYADSVKGRFTISRDNAKNTVYLQMNSLKPEDTAVYYCAVEKVYARSWFFHLCSELDFGSWGQGTQVTVSS"}, "B14": {"name": "15H7 VHH (VHH)", "VHH": "QVQLVESGGRLVQAGGSLRLSCAAPGRTFRNLTLGWFRQAPGKEREFVASTSWPDDEMTYYTDSVKGRFTISRDNAKNTVYLQMNSLKPEDTAVYYCAAASWSGRSTLSYDYDYWGQGTQVTVST"}, "B15": {"name": "11F8 VHH (VHH)", "VHH": "B2 chain"}, "B16": {"name": "13C8 VHH (VHH)", "VHH": "B3 chain"}, "B17": {"name": "8E9 VHH (VHH)", "VHH": "QVQLVESGGGLVEAGGSLRLSCVASGSSSSINAMGWYRQAPGKQRELVASISHDGETKYANSVKGRFTISRGNAKNTIYLQMNSLKPEDTAVYYCVGDVAWVVVAGEYDYWGQGTQVTVSS"}, "B18": {"name": "5A6 VHH (VHH)", "VHH": "QVQLVESGGGLAQAGGSLRLSCATSGLTFSMSAMGWFRQAPGNEREFVGVINWNGGSSRYADSVRGRFTISRDNAKNTVYLQMNSLKPEDTGVYYCAADALNIGTGEVNPRLYDYWGQGTQVMVSS"}, "B19": {"name": "20D11 VHH (VHH)", "VHH": "QVQLVESGGGLVQAGGSLRLSCAASGRTSSIYSVGWFRQAPGKERELVAGITWSGGTTYYSDSVKGRFTISRDNAKNTVNLQMNNLKPEDTAIYYCAVDRYSMTMSARDYDYWGQGTQVTVSS"}, "B20": {"name": "14F3 VHH (VHH)", "VHH": "B19 VHH with S33G, G50L, R72K, N80F, R100T, D111E"}, "B21": {"name": "5G11 VHH (VHH)", "VHH": "B19 VHH with S29F, S33A, E46D, L47F, N80Y, R100T, M105L, D109S"}, "B22": {"name": "11F5 VHH (VHH)", "VHH": "QVQLVESGGGAVQAGDSLRLSCTASGRTFSTYAVGWFRQAPGKERELLAAITGSGRNPYYPDSLKGRFTISREYAKLPVYLQMNSLKPEDTAVYYCAARRGAIATMPLDYDHWGQGTQVTVSS"}, "B23": {"name": "19B8 VHH (VHH)", "VHH": "QVQLVESGGGLVQAGGSLRLSCAASGRTFTNYAMGWFRQAPGKEREFVAAISWSGGGTNYADSVKGRFTISRDNAKNTVYLQMNSPKPEDTAVYYCATTLGYYGSSSRLYEYWGQGTQVTVSS"}, "B24": {"name": "1E4 VHH (VHH)", "VHH": "QVLLVESGGGLVQAGGLLRLACSASGRTFTENVMGWFRQAPGKEREFVAAINWNTGSTYYSDSRKGRFTISKDNAKNTMFLQINNLKPEDTAVYYCGGTSSSYYYIGEFIPDYWGQGTQVTVSS"}, "B25": {"name": "10B8 VHH (VHH)", "VHH": "QVQLVESGGGLVQPGGSLRLSCAASGITLDYYAIAWFRQAPGKEREGVSCFCSSDGDIRYADSVKGRFTISRDNAKNTVYLQMNSLKPEDTAVYYCATERVYSSTWFFHRYSELDFGSWGRGTQVTVSS"}}, "note": "Numbering of substitutions follows the chain as printed."}
{"biological_target": "T1, Biotinylated CoV2 Spike ECD PreS-AVI protein (SARS-CoV-2, UniProt P0DTC2 14-1208)", "assay": "Octet binning; competitor Std-A"}
{"binder": "B1", "binning response": 0.35}
{"binder": "B2", "binning response": 0.17}
{"binder": "B3", "binning response": 0.34}
{"biological_target": "T1, Biotinylated CoV2 Spike ECD PreS-AVI …", "assay": "Octet binning; competitor 13C8"}
{"binder": "B1", "binning response": 0.1}
{"binder": "B2", "binning response": 0.15}
{"binder": "B3", "binning response": 0.1}
{"biological_target": "T1, Biotinylated CoV2 Spike ECD PreS-AVI …", "assay": "Octet binning; competitor 8E9"}
{"binder": "B1", "binning response": 0.08}
{"binder": "B2", "binning response": 0.12}
{"binder": "B3", "binning response": 0.09}
{"biological_target": "T1, Biotinylated CoV2 Spike ECD PreS-AVI …", "assay": "Octet binning; competitor 9B2"}
{"binder": "B1", "binning response": 0.08}
{"binder": "B2", "binning response": 0.13}
{"binder": "B3", "binning response": 0.11}
{"biological_target": "T1, Biotinylated CoV2 Spike ECD PreS-AVI …", "assay": "Octet binning; competitor 11F8"}
{"binder": "B1", "binning response": 0.09}
{"binder": "B2", "binning response": 0.14}
{"binder": "B3", "binning response": 0.11}
{"biological_target": "T1, Biotinylated CoV2 Spike ECD PreS-AVI …", "assay": "Octet binning; competitor 7A9"}
{"binder": "B1", "binning response": 0.35}
{"binder": "B2", "binning response": 0.35}
{"binder": "B3", "binning response": 0.37}
{"biological_target": "T1, Biotinylated CoV2 Spike ECD PreS-AVI …", "assay": "Octet binning; competitor 15H7"}
{"binder": "B1", "binning response": 0.11}
{"binder": "B2", "binning response": 0.14}
{"binder": "B3", "binning response": 0.1}
{"biological_target": "T1, Biotinylated CoV2 Spike ECD PreS-AVI …", "assay": "Octet binning; competitor 1A11"}
{"binder": "B1", "binning response": 0.08}
{"binder": "B2", "binning response": 0.12}
{"binder": "B3", "binning response": 0.11}
{"biological_target": "T1, Biotinylated CoV2 Spike ECD PreS-AVI …", "assay": "Octet binning; competitor 15H1"}
{"binder": "B1", "binning response": 0.11}
{"binder": "B2", "binning response": 0.15}
{"binder": "B3", "binning response": 0.11}
{"biological_target": "T2, SARS-CoV-2 prefusion-stabilized spike protein (SARS-CoV-2-PreS) (SARS-CoV-2, UniProt P0DTC2 14-1208)", "assay": "ELISA", "units": {"EC50": "pM"}}
{"binder": "B1", "EC50": 140}
{"binder": "B2", "EC50": 190}
{"binder": "B3", "EC50": 90}
{"biological_target": "T1, Biotinylated CoV2 Spike ECD PreS-AVI …", "assay": "Octet binning; competitor Std-D"}
{"binder": "B1", "binning response": 0.05}
{"binder": "B2", "binning response": 0.08}
{"binder": "B3", "binning response": 0.04}
{"biological_target": "T1, Biotinylated CoV2 Spike ECD PreS-AVI …", "assay": "Octet binning; competitor Std-B"}
{"binder": "B1", "binning response": 0.3}
{"binder": "B2", "binning response": 0.29}
{"binder": "B3", "binning response": 0.31}
{"biological_target": "T2, SARS-CoV-2 prefusion-stabilized spike …", "assay": "Biacore, apparent affinity", "units": {"Kd": "pM"}}
{"binder": "B4", "Kd": "< 200"}
{"binder": "B5", "Kd": 230000}
{"binder": "B6", "Kd": 730}
{"binder": "B7", "Kd": 1500}
{"binder": "B8", "Kd": "> 500000"}
{"binder": "B9", "Kd": 220}
{"binder": "B10", "Kd": 600}
{"binder": "B1", "Kd": "< 200"}
{"binder": "B11", "Kd": "< 200"}
{"binder": "B12", "Kd": "< 50000"}
{"binder": "B13", "Kd": 610}
{"binder": "B14", "Kd": 330}
{"binder": "B2", "Kd": "< 200"}
{"binder": "B15", "Kd": 950}
{"binder": "B3", "Kd": "< 200"}
{"binder": "B16", "Kd": 12000}
{"binder": "B17", "Kd": 5700}
{"binder": "B18", "Kd": 460}
{"binder": "B19", "Kd": 2200}
{"binder": "B20", "Kd": 3000}
{"binder": "B21", "Kd": 93000}
{"binder": "B22", "Kd": 8000}
{"binder": "B23", "Kd": 87000}
{"binder": "B24", "Kd": 250}
{"binder": "B25", "Kd": "< 200"}
